Where two headings read alike, the source gives them in different places.

The Kd is the free concentration of one partner at which half of the binding sites on the other are occupied at equilibrium, for simple one-to-one binding. A lower Kd goes with tighter binding.

In assay [1] the target is pro-HB-EGF on Vero cells. Kind of assay: Schild regression from inhibition of diphtheria toxin cytotoxicity on Vero cells.
Assay [2] has as its target pro-HB-EGF on Vero cells. The description is as above. This is another data set of the same source.
Assay [3] concerns the target pro-HB-EGF on Vero cells. In words: ratio of Kd values from Schild regression (Vero cytotoxicity).

As for “CRM197 (natural mutant of diphtheria toxin comprising the G52E mutation) (from UniProt P00587 26-560) (ligand)”, the Kd in assay [1] and in assay [2] was 3.1 nM each time.
For the molecule “wild-type DTR protein (DTRWT) (from UniProt P00587 405-560) (ligand)”, the fold lower affinity for HB-EGF and pro-HB-EGF against CRM197 in assay [3] was found to be 2 fold. In addition, the Kd in assay [1] and in assay [2] was 6.5 nM throughout.

B1: Clone 1D6 (DTR carrying the mutations Y380K/Q387E/L390T) (designed binder)
chain: MGKSPGHKTEPFTHDGYAVSWNTVEDSIIRTGFQGESGHDIKITAENTPLPIAGVLLPTIPGKLDVNKSKTHISVNGRKIRMRCRAIDGDVTFCRPKSPVYVGNGVHANLHVAFHRSSSEKIHSNEISSDSIGVLGYQKTVDHTKVNSKLSLFFEIKS
The molecule B1 came in with a Kd in assay [1] of 0.025 nM.

The values above are taken from patent US20150051146A1.
